Target: T1, Smc5(G1054C), Smc5 with the engineered cysteine of the Smc5–Nse4 interface (S. cerevisiae, UniProt Q08204 1-1093, G1054C)
T1 construct: Smc5, S. cerevisiae, subunit of the Smc5/6 hexamer; engineered cysteine G1054C for BMOE cross-linking to Nse4; Stood in the assay as a subunit of the purified hexamer (Smc5, Smc6, Nse1-4)
T1 sequence (looked up): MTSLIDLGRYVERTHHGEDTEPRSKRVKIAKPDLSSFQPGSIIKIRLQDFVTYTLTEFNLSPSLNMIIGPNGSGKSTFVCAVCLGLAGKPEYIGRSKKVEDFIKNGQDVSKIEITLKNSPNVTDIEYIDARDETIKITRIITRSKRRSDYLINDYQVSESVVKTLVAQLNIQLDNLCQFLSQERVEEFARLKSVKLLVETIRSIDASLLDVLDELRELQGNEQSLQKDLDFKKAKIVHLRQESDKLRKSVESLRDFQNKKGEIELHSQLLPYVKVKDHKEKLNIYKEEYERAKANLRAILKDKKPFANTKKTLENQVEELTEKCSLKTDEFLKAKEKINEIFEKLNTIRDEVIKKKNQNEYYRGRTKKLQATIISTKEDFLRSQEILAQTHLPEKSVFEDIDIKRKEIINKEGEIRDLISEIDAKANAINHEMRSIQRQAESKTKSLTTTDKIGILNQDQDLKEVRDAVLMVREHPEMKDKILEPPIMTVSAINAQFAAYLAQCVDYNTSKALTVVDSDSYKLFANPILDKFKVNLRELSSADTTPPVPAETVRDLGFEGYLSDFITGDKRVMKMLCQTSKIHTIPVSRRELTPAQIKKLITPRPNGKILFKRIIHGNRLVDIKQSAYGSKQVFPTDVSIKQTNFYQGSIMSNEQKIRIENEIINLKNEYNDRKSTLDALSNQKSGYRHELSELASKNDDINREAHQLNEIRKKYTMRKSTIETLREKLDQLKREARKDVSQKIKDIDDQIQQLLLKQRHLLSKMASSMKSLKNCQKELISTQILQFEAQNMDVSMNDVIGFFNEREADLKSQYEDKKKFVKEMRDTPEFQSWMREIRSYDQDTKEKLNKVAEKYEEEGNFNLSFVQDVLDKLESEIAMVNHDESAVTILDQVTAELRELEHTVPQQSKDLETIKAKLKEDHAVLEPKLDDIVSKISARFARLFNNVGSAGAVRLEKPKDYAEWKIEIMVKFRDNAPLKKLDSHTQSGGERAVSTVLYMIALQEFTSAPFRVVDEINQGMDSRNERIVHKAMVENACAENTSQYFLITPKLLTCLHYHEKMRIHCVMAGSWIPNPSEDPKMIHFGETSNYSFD
Assay: cross-linking; site-specific BMOE cross-linking (1 mM, 45 s, stopped with 10 mM DTT) of engineered cysteine pairs in purified Smc5/6 hexamers at 0.5 uM; 10 mM Hepes-KOH pH 7.5, 150 mM KOAc, 2 mM MgCl2, 20% glycerol, RT; with or without Nse5/6 dimer (0.625 uM), 2 mM ATP, 5 nM plasmid DNA (25 kbp); SDS-PAGE and Coomassie staining, bands quantified
Settings: both partners purified

binding result: binds
B1: Nse5/6 dimer (loader) (complex, S. cerevisiae)
chain 1: MDGALINSVLYVSPRNGAHYFVELTEKHLLAFEMLNSMCLLENYDHVLLFLECQFGKSHNLAVIPFDIILVLFTLSTLSEYYKEPILRANDPYNTSRETLSRRALKLLQKYLAILKEFDSEQYNLYDLELLRCQFFLAIDTLTPKKQKWGFDRFRRTKSESGVTYRQNASVDPELDQAKTFKNPYRSYISCLEQRNTILGNRLLNLKLNEPGEFINMILWTLSNSLQESTPLFLSSHEIWMPLLEILIDLFSCRQDYFIQHEVAQNVSKSLFVQRLSESPLAVFFESLNTRNFANRFSEYVFLNCDYKLPSDNYATPVHPVYNGENTIVDTYIPTIKCSPLYKSQKSLALRRKLIGSCFKLLLRVPDGHRLITPRIVADDVIQGISRTLASFNDILQFKKFFMTENLSQESYFIPLLAEGTLSEILKDTQECVVILTLVENLSDGVSFCNEVIGLVKSKCFAFTEQCSQASYEEAVLNIEKCDVCLLVLLRYLLHLIGTEAILDAKEQLEMLHAIEKNDSGRRQWAKALNLGNDPPLLYPIVSQMFGVHDKSVIIE
chain 2: MGSVNSSPNEEFETVPDSQISGFDSPLIPTSVGSYFRDDDDDEKVHPNFISDPENDSLNSDEEFSSLENSDLNLSGAKAESGDDFDPILKRTIISKRKAPSNNEDEEIVKTPRKLVNYVPLKIFNLGDSFDDTITTTVAKLQDLKKEILDSPRSNKSIVITSNTVAKSELQKSIKFSGSIPEIYLDVVTKETISDKYKDWHFISKNCHYEQLMDLEMKDTAYSFLFGSSRSQGKVPEFVHLKCPSITNLLVLFGVNQEKCNSLKINYEKKENSRYDNLCTIFPVNKMLKFLMYFYSDDDNDDVREFFLKAFICLILDRKVFNAMESDHRLCFKVLELFNEAHFINSYFEIVDKNDFFLHYRLLQIFPHLQSALLRRRFSEKQGRTETIQQNIIKEFNEFFDCKNYKNLLYFILTMYGSKFIPFGPKCQVTEYFKDCILDISNETTNDVEISILKGILNLFSKIR
notes: Nse5, S. cerevisiae; a native cysteine of it cross-links off-target to Smc5(G1054C); Nse6, S. cerevisiae; also called Nse5/6 subcomplex; Nse5/6 complex
